Data published in paper PMC9352680, “A comprehensive thermodynamic model for RNA binding by the Saccharomyces cerevisiae Pumilio protein PUF4”.
Numbering of substitutions follows the chain as printed. In names and notes the source's numbering stands.

Molecular target: T1, PUF4 RNA-binding domain (Saccharomyces cerevisiae, UniProt P25339 537-888)
T1 sequence: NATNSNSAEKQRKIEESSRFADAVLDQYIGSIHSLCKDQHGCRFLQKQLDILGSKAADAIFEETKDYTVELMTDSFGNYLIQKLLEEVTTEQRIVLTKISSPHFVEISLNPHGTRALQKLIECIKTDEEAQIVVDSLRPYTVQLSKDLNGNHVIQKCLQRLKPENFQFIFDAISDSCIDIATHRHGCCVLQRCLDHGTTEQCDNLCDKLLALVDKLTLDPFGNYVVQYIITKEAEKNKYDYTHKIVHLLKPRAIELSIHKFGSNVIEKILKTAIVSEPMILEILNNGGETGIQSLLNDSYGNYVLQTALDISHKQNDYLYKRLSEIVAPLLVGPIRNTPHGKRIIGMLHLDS
Experiment: Mg; RNA-MaP; 20 mM Na-HEPES pH 7.4, 30 mM KOAc, 0.75 mM MgCl2, 0.1% Tween-20, 5% glycerol, 0.1 mg/mL BSA, 2 mM DTT; 25 C; 0.0125-409.6 nM protein
Settings: tags: N-His6-TEV cleaved; C-SNAP kept, Cy3B-labelled; label: tethered on chip by stalled RNA polymerase

B1: Ic_S2_P4E.1_K4.1_C4.1_H4.1_A4.1_[T5C]_[A6C]_[T7C]_F4.1_[T8G]_[A9G]_T4.1 (ssRNA)
RNA: UUUGAUUAAUAUGAUAUCGUUCUUUCUUGUACCCGGUUCUUUCUCGAUAUCAUAUUAAUCUUU
Kd: 844 nM

B2: Ic_S2_P4E.1_K4.1_C4.1_H4.1_A4.1_[T5G]_[A6T]_[T7A]_F4.1_[T8A]_T4.1 (ssRNA)
RNA: B1 RNA with C32G, C33U, C34A, G35A, G36A
Kd: 407 nM

B3: Ic_S2_P4E.1_K4.1_C4.1_H4.1_A4.1_[T5C]_[A6C]_[T7A]_F4.1_[A9C]_T4.1 (ssRNA)
RNA: B1 RNA with C34A, G35U, G36C
Kd: 9.15 nM

B4: Ic_S2_P4E.1_K4.1_C4.1_H4.1_A4.1_[T5C]_[A6C]_[T7G]_F4.1_[T8C]_[A9T]_T4.1 (ssRNA)
RNA: B1 RNA with C34G, G35C, G36U
Kd: 154 nM

B5: Ic_S2_P4E.1_K4.1_C4.1_H4.1_A4.1_[T5C]_[A6C]_[T7C]_F4.1_[A9C]_T4.1 (ssRNA)
RNA: B1 RNA with G35U, G36C
Kd: 24.5 nM

B6: Ic_S2_P4E.1_K4.1_C4.1_H4.1_A4.1_[T5C]_[A6C]_[T7C]_F4.1_[T8A]_[A9T]_T4.1 (ssRNA)
RNA: B1 RNA with G35A, G36U
Kd: 81.4 nM

B7: Ic_S2_P4E.1_K4.1_C4.1_H4.1_A4.1_[T5C]_[A6G]_[T7G]_F4.1_[A9T]_T4.1 (ssRNA)
RNA: B1 RNA with C33G, C34G, G35U, G36U
Kd: 109 nM

B8: Ic_S2_P4E.1_K4.1_C4.1_H4.1_A4.1_[T5C]_[A6G]_F4.1_[A9G]_T4.1 (ssRNA)
RNA: B1 RNA with C33G, C34U, G35U
Kd: 28.9 nM

B9: Ic_S2_P4E.1_K4.1_C4.1_H4.1_A4.1_[T5C]_[A6C]_[T7A]_F4.1_[T8G]_[A9T]_T4.1 (ssRNA)
RNA: B1 RNA with C34A, G36U
Kd: 171 nM

B10: Ic_S2_P4E.1_K4.1_C4.1_H4.1_A4.1_[T5G]_[A6T]_F4.1_[T8C]_[A9G]_T4.1 (ssRNA)
RNA: B1 RNA with C32G, C33U, C34U, G35C
Kd: 550 nM

B11: Ic_S2_P4E.1_K4.1_C4.1_H4.1_A4.1_[T5C]_[A6G]_[T7C]_F4.1_[T8G]_[A9T]_T4.1 (ssRNA)
RNA: B1 RNA with C33G, G36U
Kd: 332 nM

B12: Ic_S2_P4E.1_K4.1_C4.1_H4.1_A4.1_[T5C]_[A6C]_[T7C]_F4.1_[T8C]_[A9G]_T4.1 (ssRNA)
RNA: B1 RNA with G35C
Kd: 595 nM

B13: Ic_S2_P4E.1_K4.1_C4.1_H4.1_A4.1_[T5G]_[A6T]_F4.1_[T8G]_[A9C]_T4.1 (ssRNA)
RNA: B1 RNA with C32G, C33U, C34U, G36C
Kd: 588 nM

B14: Ic_S2_P4E.1_K4.1_C4.1_H4.1_A4.1_[T5C]_[A6C]_F4.1_[T8C]_T4.1 (ssRNA)
RNA: B1 RNA with C34U, G35C, G36A
Kd: 44.1 nM

B15: Ic_S2_P4E.1_K4.1_C4.1_H4.1_A4.1_[T5G]_[A6T]_F4.1_[A9G]_T4.1 (ssRNA)
RNA: B1 RNA with C32G, C33U, C34U, G35U
Kd: 95.3 nM

B16: Ic_S2_P4E.1_K4.1_C4.1_H4.1_A4.1_[T5C]_[A6C]_F4.1_[T8C]_[A9T]_T4.1 (ssRNA)
RNA: B1 RNA with C34U, G35C, G36U
Kd: 29.7 nM

B17: Ic_S2_P4E.1_K4.1_C4.1_H4.1_A4.1_[T5G]_[A6T]_[T7A]_F4.1_[T8A]_[A9T]_T4.1 (ssRNA)
RNA: B1 RNA with C32G, C33U, C34A, G35A, G36U
Kd: 342 nM

B18: Ic_S2_P4E.1_K4.1_C4.1_H4.1_A4.1_[T5C]_[A6C]_[T7C]_F4.1_T4.1 (ssRNA)
RNA: B1 RNA with G35U, G36A
Kd: 1.46 nM

B19: Ic_S2_P4E.1_K4.1_C4.1_H4.1_A4.1_[T5G]_[A6T]_F4.1_[T8A]_[A9T]_T4.1 (ssRNA)
RNA: B1 RNA with C32G, C33U, C34U, G35A, G36U
Kd: 148 nM

B20: Ic_S2_P4E.1_K4.1_C4.1_H4.1_A4.1_[T5C]_[A6G]_[T7C]_F4.1_[T8C]_[A9T]_T4.1 (ssRNA)
RNA: B1 RNA with C33G, G35C, G36U
Kd: 81.6 nM

B21: Ic_S2_P4E.1_K4.1_C4.1_H4.1_A4.1_[T5C]_[A6C]_[T7C]_F4.1_[T8G]_[A9C]_T4.1 (ssRNA)
RNA: B1 RNA with G36C
Kd: 1580 nM

B22: Ic_S2_P4E.1_K4.1_C4.1_H4.1_A4.1_[T5C]_[A6C]_[T7A]_F4.1_[A9G]_T4.1 (ssRNA)
RNA: B1 RNA with C34A, G35U
Kd: 3.21 nM

B23: Ic_S2_P4E.1_K4.1_C4.1_H4.1_A4.1_[T5C]_[A6C]_[T7C]_F4.1_[A9T]_T4.1 (ssRNA)
RNA: B1 RNA with G35U, G36U
Kd: 14.4 nM

B24: Ic_S2_P4E.1_K4.1_C4.1_H4.1_A4.1_[T5C]_[A6C]_F4.1_[T8C]_[A9C]_T4.1 (ssRNA)
RNA: B1 RNA with C34U, G35C, G36C
Kd: 79.4 nM

B25: Ic_S2_P4E.1_K4.1_C4.1_H4.1_A4.1_[T5C]_[A6G]_F4.1_[A9T]_T4.1 (ssRNA)
RNA: B1 RNA with C33G, C34U, G35U, G36U
Kd: 19.6 nM

B26: Ic_S2_P4E.1_K4.1_C4.1_H4.1_A4.1_[T5C]_[A6G]_[T7C]_F4.1_[T8A]_[A9T]_T4.1 (ssRNA)
RNA: B1 RNA with C33G, G35A, G36U
Kd: 235 nM

B27: Ic_S2_P4E.1_K4.1_C4.1_H4.1_A4.1_[T5C]_[A6G]_[T7C]_F4.1_[A9G]_T4.1 (ssRNA)
RNA: B1 RNA with C33G, G35U
Kd: 31.1 nM

B28: Ic_S2_P4E.1_K4.1_C4.1_H4.1_A4.1_[T5G]_[A6T]_[T7A]_F4.1_[A9T]_T4.1 (ssRNA)
RNA: B1 RNA with C32G, C33U, C34A, G35U, G36U
Kd: 26.4 nM

UCUCUUUGUGUUUAUCUCUU (ssRNA) [Ib_S1_P3E.1_K3.1_C3.1_H3.1_[A4G]_A3.1_[A6T]_F3.1_T3.1]
Kd: 549 nM
